The DeepSol protein solubility set

Assay: soluble on expression in E. coli; label from the status in PepcDB or PDB records

Soluble on expression in E. coli, not soluble:
METKAKNKTQLAYEYILSRIENGVYGPGYRVVIDQIARELGLSSIPVREAIRQLEAEGLVEFKPYTGAVVSNINEKEYIETLSVLAVLEGYATALGSANLTKEAINELERLNERMERALEELELERFSELNYEFHSLIYAHCGNAYLEEQIKQIWQRMKRIRVYGFTFVPQRAKASIEEHREIIRLLHEQAPPHEIEQYVRQHKINTAEAFKRRR, MGSDKIHHHHHHMRLNELYSGKNAFIFQGVGIKYQKFLTLLDESQRELLKEYCSIVYKKIKLDLWGYLTRSLSGEYDDKFSDWVSIYTIDCVVYNTYIEDGIKPSVLLGYSMGLITALACGKAISFEEGLELLSMSYNYPKYTSRKDEGMGLVTGMTCSDIKKIIDKNELGDYAYIASENNEYCILVSGMKNRVDKLLSIALTEGALSAKDIDSPYAFHSKYALIGIEEYEKLVSRLCVCNLKIPIISSYDQRIIVDSCELKKELVKNVWGEMKWMASVEKAININNYNFFEVSLIDSISRFSRMINSNCKFFTYKSFMKIKNVQVQN, MRLSMENIMNNPVIGVVMCRNRLKGHATQTLQEKYLNAIIHAGGLPIALPHALAEPSLLEQLLPKLDGIYLPSSPSNVQPHLYGENGDEPDADPGRDLLSMAIINAALERRIPIFAICRGLQELVVATGGSLHRKLCEQPELLEHREDPELPVEQQYAPSHEVQVEEGGLLSALLPECSNFWVNSLHGQGAKVVSPRLRVEARSPDGLVEAVSVINHPFALGVQWHPEWNSSEYALSRILFEGFITAWQHHIAEKQRL, MEFYGPITGEKFAFLLFRDNGEVIEFNHWSQVKEYKSELKISKSSIQIFLRNGCVYPPYTIYSNVLMLPIGTKLTIDIKNDIFKWENNFCFLDRHSKQDSKPSTSKLKTLIANSFAHLKKEVKPIYMMQSAGKDSTAMLLGLHEQGIQNVHCVTYEANFRDTESDAAKKIAESLGFEHTILFPNYEAEFDALLEYQENAVSITGDFSMLPYIAANKSVFKSDSLVIDGLGNDLYMGYVSNKLERSIMKCSLGNFSYLEPSKFTSNEVINYAISSIFMKPYERLFPGTRLSSSEIENFTDNKFIDDDAIYFSKQYNNLDKDDFRAAIRARFCDSTMFQMKAELTTNSFGNEVYFPFSNKELVDYYFNLPIEERYDKANSCNKTLLRSMLNEYVEVDDFFKVKSGFRYNMPEFITINKEKIKKEIIECDLLEQDYSNRFFAKHLDVQKVNYTSACKAYILLVFASWRNRNKLAVVDGHVADKFDWY, MKLVILLSFVATVAVFAAPSAPAGLEEKLRALQEQLYSLEKENGVDVKQKEQPAAADTFLGFVPQKRMVAWQPMKRSMINEDSRAPLLHAIEARLAEVLRAGERLGVNPEEVLADLRARNQFQ, MRLPTEAHLRQHVRVIDSMSCNREKVRDLRRQIPSFDCVPGCHDCCGPVTTSSEEMSRLPRKTVAEQEAAFNELNCVHLGPQGCTVYDERPLICRLFGTTASLPCPNGRRPVELIHPRAEKQIHEYMASTRQVLVLEHHHHHH, MGSDKIHHHHHHMNILFVSDLGSLGGGETSLFNLINEFASDNKKYNINNFLMCKTEGKLVDKCRGINVPCKVFDFKAAFKSFKFREISKAIKVIKEFLYSNNIDVIQCNEWSSAVLFSIISKVSSKNCKIIWICHGQWYKFNLIKRVLVNSLINRIISVSESVQNNLIINKLNKRKLLKQNLGIDLDRFRLGNGDKLREELHIQKEDKVLGVIARFQPIKGQKLVIEAARDIVEAGYKNYKFLLVGDSIFNNPKDSMYKNEVIEMIKEYKLQKNVLILGERNDVPDILALLDALIVPSINESFGMVVVEAFAAGCPVISTPCDGPMEIIKNGYSGVIINERNSENLKDAITDLMKEETDLEMMKINSMKESKKYDISNIAQFYCKQYALLCK

Soluble on expression in E. coli, soluble:
SELDAKLNKLGVDRIAISPYKQWTRGYMEPGNIGNGYVTGLKVDAGVRDKSDNNVLDGIVSYDRAETKNAYIGQINMTTAS, TMLSFVTTDANIDHGHLQGALSAITNETFNRITVDGDTSTNDMVVVMASGLAENETLTPEHPDWANFYKALQLACEDLAKQIARDGEGATKLIEVEVTGAANDQEAGMVAKQIVGSDLVKTAIYGADANWGRIICAIGYSGCEVNQETIDIAIGPIVTLKQSEPTGFSEEEATAYLKEADPVKISVNLHIGNGTGKAWGCDLTYDYVRINAGYRT, MAHHHHHHMDPPAAFERRYPELGALRLHFDVLDSTQLYCKRNMARLLQNGSLQDDKHMVVVTCNEQTNGIGTRDTKKKQDRMWLSERGNLFTTFVLLWKREDLEKVKYLSQTSTVAVSKTLEHFHLVTQIKWVNDVLVNEKKIAGCLVHLHYLDDFPSLSRYACVMVGIGINITLRDKDNLLGDNYTSVQKELQRDFGSFCSIPSVEDVMDKLILNLHAVFTKLREEGFSSFLDYITPRLLYKDRNVLVDTDGELIAGHLQGLLHDGSLLLLRGENELVRVNTGHLRLG, GSHMSAMAESKVLVKGTPFNKPVIKGKLENNYDMSQDEVSLLLFLKTHGGKIPLYRIKNETGLKDPESVLKNLMDYGFALEDKERLGEKIVLTSEGEFVAQAIRVRDEELRLKEMKQKKNVNRSSAPPQ, MKAQIIHSFGDSSVFQLEEVSKPKLLPGHVLIDVKATSVNPIDTKMRSGAVSAVAPEFPAILHGDVAGIVIEVGEGVSKFKCGDEVYGCAGGFKETGGALAEFMLADARLIAHKPNNITMEEAAALPLVAITAWESLFDRANIKSGQNVLIHGATGGVGHVAIQLAKWAGANVFTTASQQNKMEIAHRLGADVAINYKEESVQESVQEYVQKHTNGNGFEVIFDTVGGKNLDNSFEAAAVNGTVVTIAARSTHDLSPLHAKGLSLHVTFMALKILHTDKRNDCGEILTKITKIVEEGKLRPLLDSKSFTFDEVAQAHEYLESNKAIGKIVLKNVW
